The DeepSol protein solubility set

Test: soluble on expression in E. coli; label from the status in PepcDB or PDB records

Soluble on expression in E. coli, not soluble:
MGSDKIHHHHHHMSRFVLITPDVSFDGRLRQAVAGGLQGGVQTFFTSLLPADPNDLFAHLDQERPEVLILGPDVPVEEALRLATVMNVRFPELSVILASEPDPDFILQAMRAGIRDILSPDSDAAQIRVLLERASQQFAGRYRVQAAAPMTDTNKGLVIGVFSPKGGVGKTTIATNIAVGLGKIAPMSVVIVDLDLQFGDVASALYLDPQHTVTDAVSPAASQDSLVLKAFLTVHPASIYAVCAPPTPVDADEITPEQVSRLLEQLSEQFQYVVVDTAPGLPEIGLAAMEQCTDVVWVSGMDIPSVRGLRSGLDVLRQLDILPETRHVVLNMADSKLGLTVQDLESTIGAPVDVSIPRSRAVALSTNRGIPVLQESAKDPATKGLNQLVNRFNPAWRATSQRKLHRRVVV, MGSDKIHHHHHHMSRTVVISQPTYLPWLGYFELIAKSDVFVFLDNVQCVKQSWHNRNRLKGNDDQLIWLTVPVKAHPLDTPLSKIQILNNPSVWRRKHLGTIQTCLGSAVYFHTIFPFIQEFINYEYEYLVDLNISLIKLFADLLGLSPNFVKASDLNPQGRRTEMLVNLCQQLDADYYYSPMGSKVYIEEEKHLFIEEDIKLNYQIWEHPCYSQRGKIFVSHLSILDTLMNIGLEATRSLIIPNKLKDI, MGSDKIHHHHHHMSSHHETSENVVIKQADFIESVADALQYISYYHPKDFVDAMSEAYEREQSAAAKDAIAQILINSRMSAEGKRPLCQDTGIVTTFVKVGMGVKWDKTDMTIQQMVDEGVRRAYTNPDNPLRASIVADPAGSRKNTKDNTPSVVHIDMVPGNHVEVAIAAKGGGSENKAKMVMLNPSDDIAAWVEKTLPTMGAGWCPPGMLGIGIGGTAEKAAVLAKEALMESVDIHELMARGAQTTEEKLRLDIFERANNLGIGAQGLGGLTTVLDVKIKSAPTHAASKPVVMIPNCAATRHVHFHLDGTGPADLAPPSLSDWPEITREVGSDVRRVNLDTVTQADIEQWQSGETLLLSGKMLTGRDAAHKRIQSLIESGEGLPEGVDFTGKFIYYVGPVDPVGNEVVGPAGPTTATRMDKFTDLMLDKTGLMGMIGKAERGPATVESIKKHKAVYLMAVGGAAYLVSKAIKKSRVVAFADLGMEAIYEFDVQDMPVTVAVDSNGVNAHETGPAIWKVNIANANAKA, MGSDKIHHHHHHMSSIYGADLRTVGERIKGERKRLGLSQTAFANLAGVGKTTQINYEKGTRNPDTEYLAALDSAGVDVYYVLTGRKSSGGSSDVQAPVEEPLDGYSPVPMYDIEAAAGAGRLIEHENIESTLYFQTQALSAEGLDPAHLIGAKVRGDSMGSTLQDGDRVIVDCSQRTPDGVFLLRVGEEYRIKRVQRVAGGAWLLISDNHAYEKEMIKPDEMQDVEILGRCRVRIGRVS, MGSDKIHHHHHHMSSKPIAPLHGRTIIMTRAQEQQSEARSQLHALGSNVLDLPALVIGPPDDWQPLDDALADIKTFHWLVFSSANGVRAVEERLQRIGQSLANRPKGLKLAAVGRKTAQYLEHLGAAVDFVPPNFVADSLINHFPVSGFGLKMLLPRVQSGGRTILGEAFRESGAHVIEVAAYESRCPEAIPDDTATALANSNVDAIAFSSGKTAAHTASLLSHRFGSDWLQQLETVKVISIGPQTSLSCEQHFGRVDQEADPHNLEGLISACVKACRSEAETCPPGSR, MGSDKIHHHHHHMSSNESQTLATISPTALSQLARYIKQWGQELGFAQVGITDTDLSEEEAKLQDWLDKGYHGEMGYMANHGMMRARPHELHQGTKRVVSLRMDYLPPSAGFATNLIDPTLGYISRYAGGRDYHKLMRQRIKKLGDKIEAYCQEQGFGATDSRPFVDSAPVMERPLAEKAGIGWTGKHSLILNHNAGSWFFLGELFINLPLPLDIPISDGCNTCVACIKSCPTGAIVEPYVVDGRRCISYLTIELQGAIPEEFRPLMGNRIYGCDDCQLVCPINAQAPLTQEHDFHIRQQILQPELLTLFNWSEKTFLSLTEGSAIRRIGHKRWLRNIAIALGNAPANPNIIEALSARKASDEVDDMVLEHINWALAQQQAKVQQQTKVQQQAKVQQAVQFEPARETPAQRKTARVVRSVEKGLPRDA, MGSDKIHHHHHHMSSNTFTLGTKSVNRLGYGAMQLAGPGVFGPPRDRHVAITVLREALALGVNHIDTSDFYGPHVTNQIIREALYPYSDDLTIVTKIGARRGEDASWLPAFSPAELQKAVHDNLRNLGLDVLDVVNLRVMMGDGHGPAEGSIEASLTVLAEMQQQGLVKHIGLSNVTPTQVAEARKIAEIVCVQNEYNIAHRADDAMIDALAHDGIAYVPFFPLGGFTPLQSSTLSDVAASLGATPMQVALAWLLQRSPNILLIPGTSSVAHLRENMAAEKLHLSEEVLSTLDGISRE, MGSDKIHHHHHHMSSVTLSGRGTLGDRQVYRLGYGAMQLAGPGVFGPPKDPEEAVRVLQAAVEAGINHIDTSDFYGPHVTNQLIRKALHPYPDDLCIVTKVSARRDEKGNWLPAMSPAELTQAVEDNLRHLGLEVLEVVNLRSMLSPHGPVEGSLEAPLATLLELKERGLIRHIGLSNVTAKQVADAQKMTPIVCVQNLYNVAHRADDALVDALAAQHIAWVPFFPLGGFTPLQAQELNEVAASLEATPMQVALAWLLQRAPNILLIPGTSSRTHLAENIAAAELVLPAEALRTLDNIATAARR, MGSDKIHHHHHHMSTNLRRIQKIKGGSYIVSLPSDWVRENGLDVSREVEVFESSGIIKIRPKKDFNFERIIDFTDEETAEYLTSVYYMQGMTKITIQSKDVISRDVKDKIKMLQLELPGLNLKEESFNSITFEVDEEILKVQDSFFDFSNKALSILKDVTKIIETPREDMKQDLTSRCLALNSDYFKLIRSIALTVQRDDKYKLDVPVKDIILYAVASRDLGRFITHTRLLIGNIKQEDMKMRDQVLLLINTMENIITMFKTEDINMASRIRKNAHEILESVKSTSEANKELERMTGYALALMDDAVHKAVHL, MGSDKIHHHHHHMSTSSGERVTVGTATASPGEAVRGAIPAGDLAGGVKVEIPVVVINGGGAGPTFWVNAAIHGDEPEGPLACALAVKQIDPAKLRGTVVMVPCVNPLAFSAAERGNPLDTFTYDMNRIYPGKPDGYFSDRVADAHWQAMKDVADLEISIHSGGAHSFLDKAIFVDERPESVELAKAMGEGWGCIMSNFTKAGSPMAAMNNAGKVDITVELGGRSYTSPDRFRYVGEELAKSILNICYHYDMLDGQATYPTDATIGQQEALLAPASGIFLPEPGVDFLTMMDNGTKIARIINIFGDEVGALHAPARGMFFGLRALPNVNQGDWCCFFNKVEGPRD, MGSDKIHHHHHHMSTVAFHTLGCKVNHYETEAIWQLFKEANYERVDFEANADVFVINTCTVTNTGDKKSRQIIRRAIRQNPDAVICVTGCYAQTSSAEIMEIPGVDVVVGTQDRHKLLGYIDEFRKERQPINGVGNIMKNRKYEELDVPYFTDRTRASLKIQEGCNNFCTFCIIPWARGLMRSRDPEKVVEQATQLVNSGYKEIVLTGIHTGGYGQDLKDYNLAQLLRDLETINGLERIRISSIEASQLTDEVIDVLERSTKVVRHLHIPLQSGSDTVLKRMRRKYTMDRFSERLTKLHKALPDLAVTSDVIVGFPGETEAEFQETYDFIVKHKFSELHVFPYSPRIGTPAARMDDQIDEEIKNERVHKLITLSNQLGKLYASKFDQDVLEVIPEEQGDTEGTLVGYADNYMKVQFEGDESLIGQIVKVKITQANYPLNEGQAIKVVDFATNKSDREVLV, MGSDKIHHHHHHMSTVTTGRTLDANGDPVPGTGFELDPDSQFADRVRERTGPVTSHPTRPVWGIPLEGSGDTIRTLSVFGPGYGGPPEHYHEQSPERFEVERGSLTMMLDGTDHEVTAGETATVETGVTHTFRNDTDKRAVVITNIYSPGRLRQVLPTLGGLAHDDEGNPENPLQQALVADRLDGNTVFTRQERLEPLSRLLTPVAELAGYQGAYAKYTQPAFWERHVEQPDL, MGSDKIHHHHHHMSVMFDPQAAIYPFPPKPTPLNDDEKQFYREKIKRLLKERNAVMVAHYYTDPEIQQLAEETGGCISDSLEMARFGTKHAASTLLVAGVRFMGETAKILSPEKTILMPTLAAECSLDLGCPIDEFSAFCDAHPDRTVVVYANTSAAVKARADWVVTSSIAVELIEHLDSLGEKIIWAPDRHLGNYVQKQTGADVLCWQGACIVHDEFKTQALTRLKKIYPDAALLVHPESPQSIVEMADAVGSTSQLIKAAKTLPHRQLIVATDRGIFYKMQQAVPEKELLEAPTAGEGATCRSCAHCPWMAMNGLKAIAEGLEQGGAAHEIQVDAALREGALLPLNRMLDFAATLRA, MGSDKIHHHHHHMSVTNVTREELWAKQHLSCKNMDYAVWERDKSMLQKLSRINGGCSFVVDVYKGCYAYASTGFVDWLGYDRHKIETLEKQGDYLESRIHPHDRSQLEDLQVRLGKFIYNQPFEHRNDYCNVYSFRILNARGNYVRVTSRHQVLEQSHDGKAWLIIGNMSMAPGQKESEQVECTVLNLRNGEMFSPGVVIMNPAFGLTGREMEILRLIQRGFLSKEIADKLCISIHTVHIHRQNLLRKLGVQNSLEAIRLGQESGLLS, MGSDKIHHHHHHMSVVDFSKLYPDNRQEGETVLRQAQLVMLRMLKIIDYICRKHDISYWMCSGTLLGAVRHKGFIPWDDDLDICMIREDYERFVEIAVNEFPEDMMLQTRETDPHYHYLPLPCKVRDKKSFILSPGYEDEECEKGLFIDIFPMDRYHKQKLPFMFEKMVKVYNTFICKSLDAIYFKDESIDKKILAFFHPVFHKLVLQYMKFAKKLIDKNRGLGTDCRLGHGFDTLWKRYLRFDDIFPVVEIDFEDSKFFAPHRPDVYLTTLYGPNYMTPPPEKQRLAAQHAHEIKPII, MGSDKIHHHHHHMSYRLNIENLREFMSETSDSCEHLVFPQKRGIYRAQKEWIASGITLFKCTLRAEDEVVIEQKESAFFGGAFIHVVLEGGVSFETSQPKGSFEYRRGYTTAMEALHPSGITRVARGVSVHSIGIHIHEDFLRSREIEWKKIAKEPRLLPSNPKVEWIAKSLYQGRGGAQSDADRLRVESQILEILSCELQREETRGGMERVKLSGYDLEALHKARVILEQNLKNPPSLIELSRAIHLNEFKLKFGFKRLFGVAPYEMLFLFRMQRARGLLEEGIFSVGEVAKEVGYAQQSSFSAAFFRHFGVLPKEVAKSWKD, MGSDKIHHHHHHMTAASSVSAPGAPTIGVDFGTTNTVVSLTLGDDQARLVRYSINNRDLFAFRSALSFHSVQGVGEAANERVVEAGPWAIEAYLEDPLETRFIQSFKTFAASAAFTETRILNKRYQFEDLLAAFLLRLRDHAGAQLSELPPRIIVGRPVTFAGSSPDEALALTRYEAAFERLGFTDIRYAYEPVGAAFFFARQLKQDATVLVADFGGGTSDFSLVRFERAADGTLRSTPLSRSGVGVAGDAFDYRIIDQLVSPELGKGSDYRSFSNSLPIPQRYYAAFARWDQLALLRASKDMRDIRALERTAVEPDKIAALIEVLDGNHGYALYRSVSALKEALSSQDQATFRFEAGSVRIEKPVARVEFEAWIAPELAAIETAVGQALDQADLTEAGVDRVFLTGGSSFVPAVREIFLRRFGADKIETGGEFESIASGLALIGREADLDLWTMRAG, MGSDKIHHHHHHMTALTPAAFHSDRNRHDAHVARIREVRPGLRIHSDDATDEFDAVMSGQCSPGLHLVLLLEGALDVSYGSRRVVLTTDGRRTGRADRDAVRPAVRMQSFLLNAVEPDTFRRRLSKGGYARRLSLAMSGEWLGHLQAASRGVLPEQLGTMLSAHLAIRFWQPTPRATALAEQIVRPPAYQPMLQAIYLESRVLELLAEAFTPLETDAAQAADASLGSRDYRRMAELRAFLASDAAQALSIDDIARHAGMSANAMQRQFRAAYGTTVFDFVREHHLQRARLALERDAVSVKQAAALAGYTSAANFATAYKRRFGVTPTLARRSDKR
